# Test results taken from PMC10783490, “Biochemical and cellular insights into the Baz2B protein, a non-catalytic subunit of the chromatin remodeling complex” (Nucleic Acids Research, 2023).
# T1: TAM-AT1-AT2 Baz2B (Homo sapiens, UniProt Q9UIF8 721-884)
# T1 sequence: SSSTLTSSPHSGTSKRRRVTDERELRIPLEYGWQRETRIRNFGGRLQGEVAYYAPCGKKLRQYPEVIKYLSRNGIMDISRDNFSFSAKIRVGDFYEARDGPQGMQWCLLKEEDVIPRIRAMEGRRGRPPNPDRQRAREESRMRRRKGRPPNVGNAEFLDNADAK
# T2: TAM-AT1-AT2 Baz2B R837E (Homo sapiens, UniProt Q9UIF8 721-884, R837E)
# T2 sequence: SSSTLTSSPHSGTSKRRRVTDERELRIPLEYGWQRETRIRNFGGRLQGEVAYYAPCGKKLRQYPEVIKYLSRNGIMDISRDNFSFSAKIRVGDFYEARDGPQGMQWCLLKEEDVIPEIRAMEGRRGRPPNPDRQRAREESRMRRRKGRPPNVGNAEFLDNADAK
# T3: TAM-AT1-AT2 Baz2B R781E (Homo sapiens, UniProt Q9UIF8 721-884, R781E)
# T3 sequence: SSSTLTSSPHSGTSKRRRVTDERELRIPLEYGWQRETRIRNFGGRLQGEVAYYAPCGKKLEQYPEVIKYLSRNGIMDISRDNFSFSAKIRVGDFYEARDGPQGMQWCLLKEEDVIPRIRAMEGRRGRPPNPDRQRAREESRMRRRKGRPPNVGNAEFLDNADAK
# T4: TAM-AT1-AT2 Baz2B R765E (Homo sapiens, UniProt Q9UIF8 721-884, R765E)
# T4 sequence: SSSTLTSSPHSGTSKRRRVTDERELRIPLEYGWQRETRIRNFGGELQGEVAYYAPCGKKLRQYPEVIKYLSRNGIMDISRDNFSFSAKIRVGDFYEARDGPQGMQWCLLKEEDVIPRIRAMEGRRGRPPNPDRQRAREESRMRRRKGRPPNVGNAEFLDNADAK
# T5: TAM-AT1-AT2 Baz2B L766A (Homo sapiens, UniProt Q9UIF8 721-884, L766A)
# T5 sequence: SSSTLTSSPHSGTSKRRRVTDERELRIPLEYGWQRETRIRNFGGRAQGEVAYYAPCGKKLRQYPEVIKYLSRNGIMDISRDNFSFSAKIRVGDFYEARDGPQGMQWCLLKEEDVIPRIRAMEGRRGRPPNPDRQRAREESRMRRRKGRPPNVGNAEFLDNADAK
# T6: TAM-AT1-AT2 Baz2B Q767A (Homo sapiens, UniProt Q9UIF8 721-884, Q767A)
# T6 sequence: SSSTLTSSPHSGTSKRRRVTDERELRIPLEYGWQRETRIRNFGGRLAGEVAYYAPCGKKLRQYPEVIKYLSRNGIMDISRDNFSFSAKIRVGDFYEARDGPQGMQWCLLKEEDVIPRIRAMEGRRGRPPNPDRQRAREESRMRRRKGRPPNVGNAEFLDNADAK
# T7: TAM-AT1-AT2 Baz2B R760E (Homo sapiens, UniProt Q9UIF8 721-884, R760E)
# T7 sequence: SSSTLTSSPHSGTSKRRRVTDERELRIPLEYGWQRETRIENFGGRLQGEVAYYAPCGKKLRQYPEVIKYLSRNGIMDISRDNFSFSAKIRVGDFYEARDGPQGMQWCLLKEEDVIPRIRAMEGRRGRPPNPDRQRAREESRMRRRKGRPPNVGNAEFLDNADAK
# What was measured:
# Conditions in all cases: protein: recombinant; tags: His6
# [1] = target: T1, TAM-AT1-AT2 Baz2B; assay: EMSA; mutant series; EMSA: 20 mM HEPES pH 7.5, 30 mM KCl, 1 mM EDTA, 10 mM (NH4)2SO4, 1 mM DTT, 4 C, 10 nM probe; MST: same plus 0.1 ug/ml BSA, 5 nM probe, 25 C; GST-AT-hook and bromodomain EMSA as in cited refs
# [2] = target: T1, TAM-AT1-AT2 Baz2B; assay: MST; EMSA: 20 mM HEPES pH 7.5, 30 mM KCl, 1 mM EDTA, 10 mM (NH4)2SO4, 1 mM DTT, 4 C, 10 nM probe; MST: same plus 0.1 ug/ml BSA, 5 nM probe, 25 C; GST-AT-hook and bromodomain EMSA as in cited refs
# [3] = target: T2, TAM-AT1-AT2 Baz2B R837E; assay: EMSA; EMSA: 20 mM HEPES pH 7.5, 30 mM KCl, 1 mM EDTA, 10 mM (NH4)2SO4, 1 mM DTT, 4 C, 10 nM probe; MST: same plus 0.1 ug/ml BSA, 5 nM probe, 25 C; GST-AT-hook and bromodomain EMSA as in cited refs
# [4] = target: T3, TAM-AT1-AT2 Baz2B R781E; assay: as above
# [5] = target: T4, TAM-AT1-AT2 Baz2B R765E; assay: as above
# [6] = target: T5, TAM-AT1-AT2 Baz2B L766A; assay: as above
# [7] = target: T6, TAM-AT1-AT2 Baz2B Q767A; assay: as above
# [8] = target: T7, TAM-AT1-AT2 Baz2B R760E; assay: as above
# [9] = target: T1, TAM-AT1-AT2 Baz2B; assay: as above
binder,measurement,setting,value
ATCAGTTCTCCGGGTTGTCAGGTCGACCAGTTGTTCCTTTGAGGT (ssDNA) [45 nt ssDNA FLP015],Kd,[1],228 ± 97.8 nM
same,Kd,[2],160 nM
same,Kd,[3],248 ± 84.2 nM
same,Kd,[4],220 ± 110 nM
same,Kd,[5],93.1 ± 13 nM
same,Kd,[6],275 ± 82.9 nM
same,Kd,[7],206 ± 81 nM
same,Kd,[8],161 ± 44.7 nM
same,Kd,[9],122 nM
